Measurements taken from patent US20260109758A1 (BIOSION, published 2026).
Read-outs that look alike come from different tables or passages of the source.

Legend:
[1] = target: T1, recombinant human TSLP-his (human, UniProt Q969D9 29-159, biotin-labeled in the ELISAs); test: capture ELISA: antibody captured on anti-human IgG Fc F(ab')2, biotin human TSLP-his, SA-HRP
T1 construct: In-house made; not shown: His tag at the C-terminus
Description: Briefly, 96-well micro plates were coated with 100 μL 2 μg/mL AffiniPure F(ab′)₂ Fragment Goat Anti-Human IgG, Fey fragment specific (Jackson Immuno Research, Cat #109-006-008) in PBS and incubated overnight at 4° C. Plates were washed 4 times with wash buffer (PBS+0.05% Tween-20, PBST) and then blocked with 200 μL/well blocking buffer (5% w/v non-fatty milk in PBST) for 2 hours at 37° C. […] After the final wash, the plates were incubated with 100 μL/well TMB (Innoreagents). The reaction was stopped 15 minutes later at room temperature with 50 μL/well 1M H₂SO₄, and the absorbance of each well was read on a microplate reader using dual wavelength mode with 450 nm for TMB and 630 nm as the reference wavelength. The OD (450-630) values were plotted against antibody concentration. Data was analyzed using Graphpad Prism and EC₅₀ values were reported.

[2] = target: T1, recombinant human TSLP-his; test: competitive ELISA: antibody pre-mixed with biotin human TSLP-his; blocked binding to coated TSLPR-Fc/IL7Ra-Fc
Description: Briefly, 100 μL human TSLPR-Fc proteins (SEQ ID NO: 34-SEQ ID NO: 38 fusion, prepared in-house) at 1 μg/mL in PBS, and 100 μL human IL7Ra-Fc proteins (SEQ ID NO: 35-SEQ ID NO: 38 fusion, prepared in-house) at 1 μg/mL in PBS were coated on 96-well micro plates overnight at 4° C. The next day, plates were washed with wash buffer (PBS+0.05% Tween-20, PBST), and blocked with 5% w/v non-fatty milk in PBST for 2 hours at 37° C. Plates were then washed again using wash buffer.
After incubation at 37° C. for 40 minutes, plates were washed 4 times using wash buffer. […] Plates were washed again using wash buffer. Finally, TMB was added and the reaction was stopped using 1M H₂SO₄. The absorbance was read on a microplate reader using dual wavelength mode with 450 nm for TMB and 630 nm as the reference wavelength, then the OD (450-630) values were plotted against the antibody concentration. Data was analyzed using Graphpad Prism and IC₅₀ values were reported.

[3] = target: T2, biotin-labeled human TSLP-Fc (human, biotin-labeled); test: cell-based blocking FACS: antibody pre-mixed with biotin human TSLP-Fc; blocked binding to cell-surface TSLPR/IL7Ra on HEK293T-TSLPR/IL7R/STAT5-Luc 5C5 cells
T2 construct: also called TSLP-Fc protein; TSLP-Fc-biotin
Description: (§1) The cells were prepared following the instruction of lipofectamine 3000 transfection reagent (Thermo Fisher), by transfecting HEK293T cells (ATCC® CRL-11268) with pCMV-T-P plasmids inserted with TSLPR coding sequence between EcoRI and Xba1 sites and pCMV3-SP plasmids inserted with IL7Ra coding sequence between HindIII and Xba1 sites as well as pGL4.52 [luc2P/STAT5RE/Hygro](Promega).
(§2) The cells were harvested from cell culture flasks, washed twice and re-suspended in phosphate buffered saline (PBS) containing 2% v/v Fetal Bovine Serum (FACS buffer). […] Cells were washed twice with FACS buffer, and then added and incubated with 100 μL/well R-Phycoerythrin Streptavidin (1:500 dilution in FACS buffer, Jackson Immunoresearch, Cat #016-110-084) for 40 minutes at 4° C. in dark. Cells were washed twice and re-suspended in FACS buffer. Fluorescence was measured using a Becton Dickinson FACS Canto II-HTS equipment. Data was analyzed using Graphpad Prism and IC₅₀ values were reported.

[4] = target: T2, biotin-labeled human TSLP-Fc; test: as above; remark: listed apart in the source
Description: as §1, §2

EC50 [1]: 0.0512 nM
IC50 [2]: 0.0716 nM
IC50 [3]: 1.04 nM
IC50 [4]: 1 nM
B1: hu1C5F12E9-V8(IgG4) (antibody)
heavy: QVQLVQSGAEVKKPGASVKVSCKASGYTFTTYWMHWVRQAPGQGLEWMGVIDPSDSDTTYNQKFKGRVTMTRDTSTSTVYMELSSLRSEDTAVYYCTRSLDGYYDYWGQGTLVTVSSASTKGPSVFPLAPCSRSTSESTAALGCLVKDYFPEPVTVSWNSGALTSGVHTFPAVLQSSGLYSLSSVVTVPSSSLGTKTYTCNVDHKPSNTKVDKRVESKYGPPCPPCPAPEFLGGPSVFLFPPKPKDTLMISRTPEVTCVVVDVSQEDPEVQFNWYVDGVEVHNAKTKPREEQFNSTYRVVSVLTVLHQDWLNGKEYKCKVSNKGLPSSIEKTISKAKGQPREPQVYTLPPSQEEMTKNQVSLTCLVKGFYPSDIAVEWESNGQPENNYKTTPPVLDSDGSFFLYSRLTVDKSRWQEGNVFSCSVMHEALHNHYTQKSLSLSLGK
light: DIQMTQSPSSLSASVGDRVTITCRPTENIYSYLAWYQQKPGKAPKLLIYFARTLAEGVPSRFSGSGSGTDFTLTISSLQPEDFATYYCQHHYGTPWTFGGGTKVEIKRTVAAPSVFIFPPSDEQLKSGTASVVCLLNNFYPREAKVQWKVDNALQSGNSQESVTEQDSKDSTYSLSSTLTLSKADYEKHKVYACEVTHQGLSSPVTKSFNRGEC
notes: also called parental anti-TSLP antibody hu1C5F12E9-V8(IgG4)
